Results taken from PMC3386216 (Molecular Biology of the Cell, 2012).

T1: GST-Sac1 (amino acids 2–521) (S. cerevisiae, UniProt P32368 2-521)
T1 sequence: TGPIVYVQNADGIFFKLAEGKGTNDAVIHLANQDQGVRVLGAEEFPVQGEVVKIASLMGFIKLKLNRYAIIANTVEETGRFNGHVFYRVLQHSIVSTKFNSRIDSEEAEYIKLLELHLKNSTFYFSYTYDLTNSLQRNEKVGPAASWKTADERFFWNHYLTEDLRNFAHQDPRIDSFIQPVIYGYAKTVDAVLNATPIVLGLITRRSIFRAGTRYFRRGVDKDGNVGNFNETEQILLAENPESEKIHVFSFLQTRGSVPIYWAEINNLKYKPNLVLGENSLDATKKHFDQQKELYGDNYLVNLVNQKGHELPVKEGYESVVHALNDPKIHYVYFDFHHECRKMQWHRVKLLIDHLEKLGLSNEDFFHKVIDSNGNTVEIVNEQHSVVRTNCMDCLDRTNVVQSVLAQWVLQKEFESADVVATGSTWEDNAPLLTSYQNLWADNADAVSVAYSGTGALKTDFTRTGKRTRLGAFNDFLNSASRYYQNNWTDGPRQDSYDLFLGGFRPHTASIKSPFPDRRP


Experiments:
[1] = molecular target: Sac1 (amino acids 2–521) (untagged recombinant, SPR) (S. cerevisiae) (UniProt P32368); assay: SPR
[2] = molecular target: T1, GST-Sac1 (amino acids 2–521); assay: pull-down

Row | Binder | Kd [1] | binding result [2]
1 | Vps74ΔN59 (domain or fragment) DNINIPTLTLMEEVLLMGLRDREGYLSFWNDSISYALRGCIIIELALRGKIRILDDSARKRFDLSERLIEVIDSSKTGEVLLDETLQLMKNDEPLSISNWIDLLSGETWNLLKINYQLKQVRERLAKGLVDKGVLRTEMKNFFLFDMATHPIADASCKEAIKRRVLSVLVSRNMELSYNEYFPETTSFKIIRTLALICGSYGANVLENVLTTLEYEKRDKAISRAEEIMAQFSQYPFDLEKETELGVSVNLNKEVKEEIENNPGHDLQLEVIAGVFEVFSRMDMLL | 4.2 µM | 
2 | His- and T7-tagged Vps74 (natural protein) MSTLQRRRVNRADSGDTSSIHSSANNTKGDKIANIAVDGDDDNGTNKKIAYDPEESKLRDNINIPTLTLMEEVLLMGLRDREGYLSFWNDSISYALRGCIIIELALRGKIRILDDSARKRFDLSERLIEVIDSSKTGEVLLDETLQLMKNDEPLSISNWIDLLSGETWNLLKINYQLKQVRERLAKGLVDKGVLRTEMKNFFLFDMATHPIADASCKEAIKRRVLSVLVSRNMELSYNEYFPETTSFKIIRTLALICGSYGANVLENVLTTLEYEKRDKAISRAEEIMAQFSQYPFDLEKETELGVSVNLNKEVKEEIENNPGHDLQLEVIAGVFEVFSRMDMLL | 3.8 µM | binds
